One substance from patent publication JP2008515970A can be followed below.

The assay addresses ヒトVEGF (human) (UniProt P15692). Description: cell-based or functional assay.
Sequence of UniProt P15692 (P15692 other isoform, or with tags, fused parts or gaps limits assumed): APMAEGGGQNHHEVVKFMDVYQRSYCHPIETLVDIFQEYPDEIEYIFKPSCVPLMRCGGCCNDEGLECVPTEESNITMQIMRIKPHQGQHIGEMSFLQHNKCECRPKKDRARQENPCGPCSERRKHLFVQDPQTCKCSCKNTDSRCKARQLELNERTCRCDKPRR

As for VEGFR1−Fc−IL−1ra (Fc fusion), the EC50 (inhibition of VEGF-dependent HUVE cell proliferation, VEGF 10 ng/ml) worked out at 15 ng/mL.
